Results: article PMC3579138
Each block holds one substance with its values, some of them ahead of it.

What was measured:
[1] = target: K63-polyubiquitinated Sic1 (UniProt P38634)
[2] = target: K63-polyubiquitinated Nedd4 (resin-bound GST-Nedd4, autoubiquitinated) (UniProt P46934); test: pull-down
[3] = target: K48-linked tetraubiquitin (Homo sapiens) (UniProt P0CG48); details: cited from earlier work
[4] = target: K63-linked tetraubiquitin (Homo sapiens) (UniProt P0CG48); details: cited from earlier work

K63-polyubiquitinated Nedd4 (resin-bound GST-Nedd4, autoubiquitinated), sequence (P46934 whole entry): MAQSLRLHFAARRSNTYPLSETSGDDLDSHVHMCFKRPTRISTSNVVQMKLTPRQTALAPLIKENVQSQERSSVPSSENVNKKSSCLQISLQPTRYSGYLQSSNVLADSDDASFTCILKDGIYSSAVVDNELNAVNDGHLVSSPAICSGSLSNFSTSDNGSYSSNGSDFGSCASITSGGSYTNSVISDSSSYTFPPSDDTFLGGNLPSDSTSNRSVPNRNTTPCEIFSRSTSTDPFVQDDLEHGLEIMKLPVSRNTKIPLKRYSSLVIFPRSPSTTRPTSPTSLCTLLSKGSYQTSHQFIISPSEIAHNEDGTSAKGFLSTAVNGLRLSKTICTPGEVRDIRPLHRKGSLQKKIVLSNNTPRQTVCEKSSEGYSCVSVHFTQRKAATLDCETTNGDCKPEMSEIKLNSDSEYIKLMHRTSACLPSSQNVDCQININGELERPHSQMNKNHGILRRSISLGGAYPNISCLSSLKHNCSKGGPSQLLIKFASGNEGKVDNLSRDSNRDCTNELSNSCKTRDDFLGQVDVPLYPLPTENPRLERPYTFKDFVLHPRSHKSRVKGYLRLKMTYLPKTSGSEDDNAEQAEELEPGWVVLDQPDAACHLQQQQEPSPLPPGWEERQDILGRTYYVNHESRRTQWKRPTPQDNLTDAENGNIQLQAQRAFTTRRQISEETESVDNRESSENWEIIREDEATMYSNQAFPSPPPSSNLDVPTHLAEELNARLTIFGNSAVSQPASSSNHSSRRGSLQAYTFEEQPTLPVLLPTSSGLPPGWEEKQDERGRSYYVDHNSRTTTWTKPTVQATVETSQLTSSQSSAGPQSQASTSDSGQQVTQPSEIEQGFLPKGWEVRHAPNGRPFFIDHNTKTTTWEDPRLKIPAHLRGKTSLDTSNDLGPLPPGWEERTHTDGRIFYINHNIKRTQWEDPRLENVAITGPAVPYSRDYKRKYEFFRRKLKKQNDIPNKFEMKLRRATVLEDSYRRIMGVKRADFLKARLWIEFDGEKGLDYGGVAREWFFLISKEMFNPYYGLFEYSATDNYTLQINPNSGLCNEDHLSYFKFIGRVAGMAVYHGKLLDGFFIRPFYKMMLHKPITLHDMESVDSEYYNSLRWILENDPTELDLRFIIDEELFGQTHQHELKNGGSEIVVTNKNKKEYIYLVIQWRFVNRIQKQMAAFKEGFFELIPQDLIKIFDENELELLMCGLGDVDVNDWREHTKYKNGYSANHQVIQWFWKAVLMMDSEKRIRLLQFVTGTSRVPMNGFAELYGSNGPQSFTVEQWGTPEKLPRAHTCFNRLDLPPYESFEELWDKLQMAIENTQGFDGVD
hHR23A UBA2, sequence (P54725 315-361): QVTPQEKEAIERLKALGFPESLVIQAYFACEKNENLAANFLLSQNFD
Hrs, purified recombinant, sequence (O14964 whole entry): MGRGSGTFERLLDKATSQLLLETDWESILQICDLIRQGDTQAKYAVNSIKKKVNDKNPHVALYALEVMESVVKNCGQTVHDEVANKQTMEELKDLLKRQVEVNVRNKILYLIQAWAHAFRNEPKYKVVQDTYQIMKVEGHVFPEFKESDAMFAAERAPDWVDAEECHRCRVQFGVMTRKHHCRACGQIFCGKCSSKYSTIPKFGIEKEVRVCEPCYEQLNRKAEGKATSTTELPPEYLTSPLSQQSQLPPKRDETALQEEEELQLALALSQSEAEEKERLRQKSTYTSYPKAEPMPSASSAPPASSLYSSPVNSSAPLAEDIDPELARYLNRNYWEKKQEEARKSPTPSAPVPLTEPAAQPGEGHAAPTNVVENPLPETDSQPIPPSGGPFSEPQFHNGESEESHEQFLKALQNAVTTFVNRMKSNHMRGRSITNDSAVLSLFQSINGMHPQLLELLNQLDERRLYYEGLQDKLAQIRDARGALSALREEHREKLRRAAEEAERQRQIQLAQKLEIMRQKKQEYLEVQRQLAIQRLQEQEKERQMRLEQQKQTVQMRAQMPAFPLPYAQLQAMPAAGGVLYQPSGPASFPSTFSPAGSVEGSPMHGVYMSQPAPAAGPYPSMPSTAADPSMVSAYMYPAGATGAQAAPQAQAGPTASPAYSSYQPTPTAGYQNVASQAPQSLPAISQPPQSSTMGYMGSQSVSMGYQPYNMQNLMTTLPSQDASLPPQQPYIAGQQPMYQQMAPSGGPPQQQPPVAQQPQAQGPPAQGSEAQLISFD

- percent decrease of conjugate binding to proteasomes at 80nM [1]: 80%
Substance: Hrs, purified recombinant (from UniProt O14964 1-777) (natural protein)

- percent binding with lysate of cells with Hrs and STAM knocked down [2]: 35%
- percent binding with lysate of control cells [2]: 19%
- percent reduction of binding by the cell extract [2]: < 80%
Substance: 26S proteasomes purified from rabbit muscle (complex)

Substance: hHR23A UBA2 (from UniProt P54725)
- Kd [3]: 8 µM
- Kd [4]: 28 µM
